# Results from patent US20040191883A1 (ULTIZYME INTERNATIONAL, published 2004).
# Target: the molecule itself
# Test: SDS-PAGE without mercaptoethanol, subunit-subunit disulfide-linked homodimer
protein,measurement,value
"modified water-soluble PQQGDH Ser415Cys (Acinetobacter calcoaceticus) (enzyme, Cys415 of each subunit joined in an inter-subunit disulfide bond, also called modified enzyme Ser415Cys; Ser4l5Cys) DVPLTPSQFAKAKSENFDKKVILSNLNKPHALLWGPDNQIWLTERATGKILRVNPESGSVKTVFQVPEIVNDADGQNGLLGFAFHPDFKNNPYIYISGTFKNPKSTDKELPNQTIIRRYTYNKSTDTLEKPVDLLAGLPSSKDHQSGRLVIGPDQKIYYTIGDQGRNQLAYLFLPNQAQHTPTQQELNGKDYHTYMGKVLRLNLDGSIPKDNPSFNGVVSHIYTLGHRNPQGLAFTPNGKLLQSEQGPNSDDEINLIVKGGNYGWPNVAGYKDDSGYAYANYSAAANKSIKDLAQNGVKVAAGVPVTKESEWTGKNFVPPLKTLYTVQDTYNYNDPTCGEMTYICWPTVAPSSAYVYKGGKKAITGWENTLLVPSLKRGVIFRIKLDPTYCTTYDDAVPMFKSNNRYRDVIASPDGNVLYVLTDTAGNVQKDDGSVTNTLENPGSLIKFTYKAK",binding result,binds
